Results on eight proteins are retold here after publication PMC10629212, “Active Site Loop Engineering Abolishes Water Capture in Hydroxylating Sesquiterpene Synthases” (ACS Catalysis, 2023).

What is called Km is the concentration of substrate that gives half-maximal velocity.

The chains are these.
B1: PTS (patchoulol synthase) (Pogostemon cablin; E461S/K458R/K459R/R460G) (protein)
chain: MELYAQSVGVGAASRPLANFHPCVWGDKFIVYNPQSCQAGEREEAEELKVELKRELKEASDNYMRQLKMVDAIQRLGIDYLFVEDVDEALKNLFEMFDAFCKNNHDMHATALSFRLLRQHGYRVSCEVFEKFKDGKDGFKVPNEDGAVAVLEFFEATHLRVHGEDVLDNAFDFTRNYLESVYATLNDPTAKQVHNALNEFSFRRGLPRVEARKYISIYEQYASHHKGLLKLAKLDFNLVQALHRRELSEDSRWWKTLQVPTKLSFVRDRLVESYFWASGSYFEPNYSVARMILAKGLAVLSLMDDVYDAYGTFEELQMFTDAIERWDASCLDKLPDYMKIVYKALLDVFEEVDEELIKLGAPYRAYYGKEAMKYAARAYMEEAQWREQKHKPTTKEYMKLATKTCGYITLIILSCLGVEEGIVTKEAFDWVFSRPPFIEATLIIARLVNDITGHEFERRGSHVRTAVECYMEEHKVGKQEVVSEFYNQMESAWKDINEGFLRPVEFPIPLLYLILNSVRTLEVIYKEGDSYTHVGPAMQNIIKQLYLHPVPY
notes: recombinant purified; construct details only in Supporting Information
B2: PTS (patchoulol synthase) (Pogostemon cablin; C405A) (protein)
chain: MELYAQSVGVGAASRPLANFHPCVWGDKFIVYNPQSCQAGEREEAEELKVELKRELKEASDNYMRQLKMVDAIQRLGIDYLFVEDVDEALKNLFEMFDAFCKNNHDMHATALSFRLLRQHGYRVSCEVFEKFKDGKDGFKVPNEDGAVAVLEFFEATHLRVHGEDVLDNAFDFTRNYLESVYATLNDPTAKQVHNALNEFSFRRGLPRVEARKYISIYEQYASHHKGLLKLAKLDFNLVQALHRRELSEDSRWWKTLQVPTKLSFVRDRLVESYFWASGSYFEPNYSVARMILAKGLAVLSLMDDVYDAYGTFEELQMFTDAIERWDASCLDKLPDYMKIVYKALLDVFEEVDEELIKLGAPYRAYYGKEAMKYAARAYMEEAQWREQKHKPTTKEYMKLATKTAGYITLIILSCLGVEEGIVTKEAFDWVFSRPPFIEATLIIARLVNDITGHEFEKKREHVRTAVECYMEEHKVGKQEVVSEFYNQMESAWKDINEGFLRPVEFPIPLLYLILNSVRTLEVIYKEGDSYTHVGPAMQNIIKQLYLHPVPY
notes: as for B1
B3: PTS (patchoulol synthase) (Pogostemon cablin) (protein)
chain: MELYAQSVGVGAASRPLANFHPCVWGDKFIVYNPQSCQAGEREEAEELKVELKRELKEASDNYMRQLKMVDAIQRLGIDYLFVEDVDEALKNLFEMFDAFCKNNHDMHATALSFRLLRQHGYRVSCEVFEKFKDGKDGFKVPNEDGAVAVLEFFEATHLRVHGEDVLDNAFDFTRNYLESVYATLNDPTAKQVHNALNEFSFRRGLPRVEARKYISIYEQYASHHKGLLKLAKLDFNLVQALHRRELSEDSRWWKTLQVPTKLSFVRDRLVESYFWASGSYFEPNYSVARMILAKGLAVLSLMDDVYDAYGTFEELQMFTDAIERWDASCLDKLPDYMKIVYKALLDVFEEVDEELIKLGAPYRAYYGKEAMKYAARAYMEEAQWREQKHKPTTKEYMKLATKTCGYITLIILSCLGVEEGIVTKEAFDWVFSRPPFIEATLIIARLVNDITGHEFEKKREHVRTAVECYMEEHKVGKQEVVSEFYNQMESAWKDINEGFLRPVEFPIPLLYLILNSVRTLEVIYKEGDSYTHVGPAMQNIIKQLYLHPVPY
notes: as for B1
B4: PTS (patchoulol synthase) (Pogostemon cablin; Y525A) (protein)
chain: MELYAQSVGVGAASRPLANFHPCVWGDKFIVYNPQSCQAGEREEAEELKVELKRELKEASDNYMRQLKMVDAIQRLGIDYLFVEDVDEALKNLFEMFDAFCKNNHDMHATALSFRLLRQHGYRVSCEVFEKFKDGKDGFKVPNEDGAVAVLEFFEATHLRVHGEDVLDNAFDFTRNYLESVYATLNDPTAKQVHNALNEFSFRRGLPRVEARKYISIYEQYASHHKGLLKLAKLDFNLVQALHRRELSEDSRWWKTLQVPTKLSFVRDRLVESYFWASGSYFEPNYSVARMILAKGLAVLSLMDDVYDAYGTFEELQMFTDAIERWDASCLDKLPDYMKIVYKALLDVFEEVDEELIKLGAPYRAYYGKEAMKYAARAYMEEAQWREQKHKPTTKEYMKLATKTCGYITLIILSCLGVEEGIVTKEAFDWVFSRPPFIEATLIIARLVNDITGHEFEKKREHVRTAVECYMEEHKVGKQEVVSEFYNQMESAWKDINEGFLRPVEFPIPLLYLILNSVRTLEVIAKEGDSYTHVGPAMQNIIKQLYLHPVPY
notes: as for B1
B5: PTS (patchoulol synthase) (Pogostemon cablin; Y525F) (protein)
chain: MELYAQSVGVGAASRPLANFHPCVWGDKFIVYNPQSCQAGEREEAEELKVELKRELKEASDNYMRQLKMVDAIQRLGIDYLFVEDVDEALKNLFEMFDAFCKNNHDMHATALSFRLLRQHGYRVSCEVFEKFKDGKDGFKVPNEDGAVAVLEFFEATHLRVHGEDVLDNAFDFTRNYLESVYATLNDPTAKQVHNALNEFSFRRGLPRVEARKYISIYEQYASHHKGLLKLAKLDFNLVQALHRRELSEDSRWWKTLQVPTKLSFVRDRLVESYFWASGSYFEPNYSVARMILAKGLAVLSLMDDVYDAYGTFEELQMFTDAIERWDASCLDKLPDYMKIVYKALLDVFEEVDEELIKLGAPYRAYYGKEAMKYAARAYMEEAQWREQKHKPTTKEYMKLATKTCGYITLIILSCLGVEEGIVTKEAFDWVFSRPPFIEATLIIARLVNDITGHEFEKKREHVRTAVECYMEEHKVGKQEVVSEFYNQMESAWKDINEGFLRPVEFPIPLLYLILNSVRTLEVIFKEGDSYTHVGPAMQNIIKQLYLHPVPY
notes: as for B1
B6: PTS (patchoulol synthase) (Pogostemon cablin; Y531F) (protein)
chain: MELYAQSVGVGAASRPLANFHPCVWGDKFIVYNPQSCQAGEREEAEELKVELKRELKEASDNYMRQLKMVDAIQRLGIDYLFVEDVDEALKNLFEMFDAFCKNNHDMHATALSFRLLRQHGYRVSCEVFEKFKDGKDGFKVPNEDGAVAVLEFFEATHLRVHGEDVLDNAFDFTRNYLESVYATLNDPTAKQVHNALNEFSFRRGLPRVEARKYISIYEQYASHHKGLLKLAKLDFNLVQALHRRELSEDSRWWKTLQVPTKLSFVRDRLVESYFWASGSYFEPNYSVARMILAKGLAVLSLMDDVYDAYGTFEELQMFTDAIERWDASCLDKLPDYMKIVYKALLDVFEEVDEELIKLGAPYRAYYGKEAMKYAARAYMEEAQWREQKHKPTTKEYMKLATKTCGYITLIILSCLGVEEGIVTKEAFDWVFSRPPFIEATLIIARLVNDITGHEFEKKREHVRTAVECYMEEHKVGKQEVVSEFYNQMESAWKDINEGFLRPVEFPIPLLYLILNSVRTLEVIYKEGDSFTHVGPAMQNIIKQLYLHPVPY
notes: as for B1
B7: Gd11olS (germacradiene-11-ol synthase) (Streptomyces coelicolor A3(2)) (protein)
chain: MTQQPFQLPHFYLPHPARLNPHLDEARAHSTTWAREMGMLEGSGVWEQSDLEAHDYGLLCAYTHPDCDGPALSLITDWYVWVFFFDDHFLEKYKRSQDRLAGKAHLDRLPLFMPLDDAAGMPEPRNPVEAGLADLWTRTVPAMSADWRRRFAVATEHLLNESMWELSNINEGRVANPVEYIEMRRKVGGAPWSAGLVEYATAEVPAAVAGTRPLRVLMETFSDAVHLRNDLFSYQREVEDEGELSNGVLVLETFFGCTTQEAADLVNDVLTSRLHQFEHTAFTEVPAVALEKGLTPLEVAAVGAYTKGLQDWQSGGHEWHMRSSRYMNKGERPLAGWQ
notes: likely N-terminal germacradienol synthase domain of the bifunctional geosmin synthase (as in PDB 5DZ2); recombinant purified
B8: Gd11olS (germacradiene-11-ol synthase) (Streptomyces coelicolor A3(2); D240G/E239R/E241S/V238R) (protein)
chain: MTQQPFQLPHFYLPHPARLNPHLDEARAHSTTWAREMGMLEGSGVWEQSDLEAHDYGLLCAYTHPDCDGPALSLITDWYVWVFFFDDHFLEKYKRSQDRLAGKAHLDRLPLFMPLDDAAGMPEPRNPVEAGLADLWTRTVPAMSADWRRRFAVATEHLLNESMWELSNINEGRVANPVEYIEMRRKVGGAPWSAGLVEYATAEVPAAVAGTRPLRVLMETFSDAVHLRNDLFSYQRERRGSGELSNGVLVLETFFGCTTQEAADLVNDVLTSRLHQFEHTAFTEVPAVALEKGLTPLEVAAVGAYTKGLQDWQSGGHEWHMRSSRYMNKGERPLAGWQ
notes: as for B7

Substrate in one data set: CC(C)=CCC/C(C)=C/CC/C(C)=C/CO[P@@](=O)(O)OP(=O)(O)O
In words: steady-state kinetics of sesquiterpene formation (details in Supporting Information). It counts as biochemical, Pogostemon cablin. The note with it: Mg2+-dependent enzyme; conditions in Supporting Information. An excerpt: steady-state kinetics of sesquiterpene formation (details in Supporting Information) on PTS (patchoulol synthase)
With B1, the Km was found to be 1.54 ± 0.16 µM.
As to B2, the Km stood at 0.67 ± 0.09 µM.
Same read-out and setting: the same measure for B3: 0.68 ± 0.14 µM.
In the case of B4, the Km amounted to 5.27 ± 1.22 µM.
Take B5: the Km was 4.8 ± 1.26 µM.
With B6, the Km is 0.37 ± 0.09 µM.

Substrate in the next data set: CC(C)=CCC/C(C)=C/CC/C(C)=C/CO[P@@](=O)(O)OP(=O)(O)O
Described as above. It counts as biochemical, Streptomyces coelicolor. The note with it: Mg2+-dependent enzyme; conditions in Supporting Information. This is another data set of the same source. An excerpt: steady-state kinetics of sesquiterpene formation (details in Supporting Information) on Gd11olS (germacradiene-11-ol synthase)
Consider B7, for which the Km is 0.45 ± 0.08 µM.
For B8, the Km stood at 6.02 ± 1.25 µM.
